Laboratory results: paper PMC5394680

Target: Alexa488-labeled H3-H4 dimer (UniProt P84233)
Experiment: fluorescence polarisation; 5 nM Alexa488-labeled H3-H4 dimer with increasing amounts of CAF-1; 25 mM TRIS pH 7.5, 300 mM NaCl, 5% glycerol, 1 mM EDTA, 0.01% NP-40, 0.01% CHAPS, 1 mM DTT

Point of comparison: “full-length (FL) yeast CAF-1 complex (from UniProt Q12495 1-606; Q04199 1-449; P13712 1-422)”, Kd 0.3 nM. Against it:
- Cac2 (middle subunit of yeast CAF-1), C-terminal His-tag (from UniProt Q04199 1-449) (natural protein) — higher, > 1000 nM
- Cac3 (small subunit of yeast CAF-1) (from UniProt P13712 1-422) (natural protein) — 260-fold higher, 77 nM
- tCAF-1 (tCac1 233-606 with Cac2 and Cac3) (from UniProt Q12495 233-606; Q04199 1-449; P13712 1-422) (complex) — 1.7-fold higher, 0.5 nM
- tCAF_Nac (trimeric tCAF-1 with the acidic region of Cac1 replaced by a neutral Gly-Ser-Leu peptide) (from UniProt Q12495 233-606; Q04199 1-449; P13712 1-422) (complex) — 27-fold higher, 8 nM
- tCAF_∆2 (tCAF-1 sub-complex lacking the middle subunit Cac2) (from UniProt Q12495 233-606; P13712 1-422) — 83-fold higher, 25 nM
- tCAF_∆3 (tCAF-1 sub-complex lacking the small subunit Cac3) (from UniProt Q12495 233-606; Q04199 1-449) — 4.3-fold higher, 1.3 nM
- tCAF_∆ac (trimeric tCAF-1 with the acidic region of Cac1 deleted) (from UniProt Q12495 233-606; Q04199 1-449; P13712 1-422) (complex) — 200-fold higher, 60 nM
